In article doi:10.1101/2024.05.25.595884 (bioRxiv, 2024):
Numbering of substitutions follows the chain as printed.

B1: Trastuzumab scFab HCDR3 variant clone H3_72 (Fab, V domains shown)
VH: EVQLVESGGGLVQPGGSLRLSCAASGFNIKDTYIHWVRQAPGKGLEWVARIYPTNGYTRYADSVKGRFTISADTSKNTAYLQMNSLRAEDTAVYYCSRWRGKGFTAMDYWGQGTLVTVSS
VL: not shown
B2: Trastuzumab scFab HCDR3 variant clone H3_29 (Fab, V domains shown)
VH: B1 VH with G101S, K102I, T105Y
VL: not shown
B3: Trastuzumab scFab HCDR3 variant clone H3_77 (Fab, V domains shown)
VH: B1 VH with G101R, T105Y
VL: not shown
B4: Trastuzumab scFab HCDR3 variant clone H3_85 (Fab, V domains shown)
VH: B1 VH with R100G, G101R, K102H, T105N
VL: not shown
B5: Trastuzumab scFab HCDR2/HCDR3 cross-combination clone H2/3_07 (Fab, V domains shown)
VH: B1 VH with Y52R, T54V, N55R, G101S, K102I, T105Y
VL: not shown
B6: Trastuzumab scFab HCDR2/HCDR3 cross-combination clone H2/3_03 (Fab, V domains shown)
VH: B1 VH with Y52K, T54A, G101S, K102I, T105Y
VL: not shown
B7: Trastuzumab scFab HCDR2 variant IRPVRG (Fab, V domains shown)
VH: B1 VH with Y52R, T54V, N55R, R100G, K102D, T105Y
VL: not shown

molecular target: full-length human HER2 with enhanced green fluorescent protein (eGFP) at the C-terminal end (Homo sapiens, UniProt P04626); assay: SPID

| binding result | Kd | fold enhancement in affinity compared to the original Trastuzumab | Binder |
| --- | --- | --- | --- |
| binds |  |  | B1 |
| binds |  |  | B2 |
| binds |  |  | B3 |
| binds |  |  | B4 |
|  | < 1 nM | 6 fold | B5 |
|  | < 1 nM | 6 fold | B6 |
|  | 2.6 nM |  | B7 |
